Results: patent US7135326B2, “UDP-glucosyltransferases” (E. I. du Pont de Nemours and Company, priority 2002, dated 2006)

Columns and labels:
Grape GT = test: Substrate specificity of the purified recombinant Grape GT, HPLC analysis of glucose ester formation; format: biochemical, Vitis sp.; conditions: relative to pHBA = 100, 10 mM test substrate, 0.0467 μM purified Grape GT, 15 min, 25° C.
Procedure: To rule out the possibility that the Grape GT can also attach glucose to the hydroxyl group of pHBA, the products of the in vitro enzyme reaction were directly analyzed by reverse phase HPLC. […] Following a 1-min incubation period at 25° C., the reactions were terminated by the addition of an equal volume of 0.2 N HCl. […] The column was developed at 1 mL/min with a linear gradient of 10–50% Buffer B that was generated over a 20-min period, and absorbance was monitored at 254 nm. […] To test this hypothesis, Applicants' decided to examine the substrate specificity of the Grape GT in greater detail. […] Following a 15-min incubation period at 25° C., the reactions were quenched with an equal volume of 0.3 M HCl and the entire reaction mixture was analyzed by HPLC as described above in Example 6. The products of the various reactions were identified using authentic chemical standards. The retention times and extinction coefficients of these compounds were determined using the same column conditions. […] Regardless of substrate, the purified recombinant Grape GT only catalyzed the formation of glucose esters, which in all cases co-migrated precisely with the authentic compounds. […] Since the glucose ester of the latter compound is the precursor for the synthesis of simple and complex tannins that are extremely abundant in grapes, it is possible that gallic acid is a physiological substrate of the Grape GT. The data shown in Table 3 make it clear that although the Grape GT glucosylated mHBA (3-hydroxybenzoic […]) at a reasonable rate, product formation with oHBA (2-hydroxybenzoic acid) was not observed.

[1] = Ratio of enzyme activity with pHBA versus sinapic acid (spectrophotometric assays); format: biochemical; conditions: for rate of pHBA glucosylation relative to sinapic acid: cell-free extract; for Ratio of Activity pHBA/SA: Table 4, cell-free extracts, 10 mM pHBA or sinapic acid, 25° C.; for times more active with sinapic acid than pHBA / pHBA/SA ratio of enzyme activity: crude extract
Procedure: (§1) The second assay is based on the increase in absorbance at 368 nm that accompanies the formation of the glucose ester of sinapic acid. The experimental conditions were the same as those described above, but the test substrate was sinapic acid and product formation was calculated using an extinction coefficient of 5,570 M^−1 that was obtained with the authentic chemically synthesized compound under identical conditions.

[2] = Continuous spectrophotometric UDP-glucosyltransferase assay, formation of pHBA glucose ester at 304 nm, E. coli cell-free extracts; format: biochemical; conditions: crude extract, 10 mM UDP-glucose, pH 7.3, 25° C.
Procedure: (§2) For protein production, the resulting recombinant strains were grown at 22° C. in 50 mL of LB media that contained kanamycin (50 μg/mL). At an A600 nm of ˜0.6, isopropyl-1-thio-β-D-galactopyranoside was added to a final concentration of 0.2 mM. Following a 22-h induction period at the same temperature, the cells were harvested by centrifugation and stored at −80° C. for subsequent manipulation as described below.
(§3) The frozen cell pellets were resuspended in 1.0 mL of a solution containing 100 mM Tris-HCl (pH 7.7), 5 mM MgSO4, 1 mM dithiothreitol, 0.03 mg/mL DNAse I, 0.5 mM phenylmethanesulfonyl fluoride, and passed once through a French pressure cell at 20,000 psi. Debris was removed by centrifugation (43,000×g, 60 min), and the resulting cell-free extracts, containing ˜15 mg of protein per mL, were supplemented with 5% glycerol and stored at −80° C. for subsequent measurements of enzyme activities. Protein concentrations were determined by the Bradford Method using bovine serum albumin as a standard.

[3] = Continuous spectrophotometric UDP-glucosyltransferase assay, formation of glucose ester of sinapic acid at 368 nm, E. coli cell-free extracts; format: biochemical; conditions: crude extract, 10 mM UDP-glucose, pH 7.3, 25° C.; for initial rate of product formation, 1 mM SA: 1 mM sinapic acid; for initial rate of product formation, 5 mM SA: 5 mM sinapic acid; for initial rate of product formation, 10 mM SA: 10 mM sinapic acid
Procedure: as §2, §3, §1

O=C(O)/C=C/c1ccc(O)c(O)c1 [Caffeic acid, caffeic acid]
Relative Rate of product formation (Grape GT): 25

B1: Citrus GT: Citrus mitis UDP-glucosyltransferase, SEQ ID NO:31 (protein, listed as Citrus mitis)
chain: MGTESLVHVLLVSFPGHGHVNPLLRLGRLLASKGFFLTLTTPESFGKQMRKAGNFTYEPTPVGDGFIRFEFFEDGWDEDDPGRRDLDQYMAQLELIGKQVIPKIIKKSAEEYRPVSCLINNPFIPWVSDVAESLGLPSAMLWVQSCACFAAYYHYFHGLVPFPSEKEPEIDVQLPCMPLLKHDEVPSFLHPSTPYPFLRRAILGQYENLGKPFCILLDTFYELEKEIIDYMAKICPIKPVGPLFKNPKAPTLTVRDDCMKPDECIDWLDKKPPSSVVYISFGTVVYLKQEQVEEIGYALLNSGISFLWVMKPPPEDSGVKIVDLPDGFLEKVGDKGKVVQWSPQEKVLAHPSVACFVTHCGWNSTMESLASGVPVITFPQWGDQVTDAMYLCDVFKTGLRLCRGEAENRIISRDEVEKCLLEATAGPKAAELKESALKWKQEAEEAVADGGSSDRNIQAFVDEVRRRSVGIITSSKSKSIHRVKELVEKTATATANDKVELVES
substrate preference for pHBA over sinapic acid ([1]; 10 mM substrate concentration): 4.88 fold | rate of pHBA glucosylation relative to sinapic acid ([1]; 10 mM substrate): at least six times faster | Ratio of Activity pHBA/SA [1]: 6.35

B2: SA-GT: Brassica napus UDP-glucosyltransferase (GenBank Accession No. AF287143), SEQ ID NO:4 (protein, listed as Brassica napus)
chain: MELSSSPLPPHVMLLSFPGQGHVNPLLRLGKLLASKGLLVTFVTTESWGKKMRTANKIQDRALKPIGKGYLRFDFFDDGLPEDDDASRTNLTILRPQLELVGQQEIKNLVKRYKEVMKQPVTCLINNPFVSWVCDVAEDLQIPCAVLWVQSCACLASYYYYHHKLVDFPTETDPKIDVQIPCMPVLKHDEIPSFIHPFSPYSGLREVIIDQIKRLHKPFVVLIDTFYSLEKDIIDHMTNLSRTGVVRPLGPLYKMAKTLICDDIKGDMSETRDDCMEWLDSQPVSSVVYISFGTMAYVTQEQISEIAFGVLNAGVSFLWVIRQQELGVNKERHVLPEELKGKGKVVEWCSQEKVLAHPSVVCFVTHCGWNSTMEALSSGVPTVCFPQWGDQVTDAAYMSDVFKTGVRLSRGETEERVVPREEVAERLREVTKGEKATELKKNALKWKEEAEAAVARRGSSDRNLDEFVEKLCVKHVAKQNGSLNQNGSIQKLLLQKS
initial rate of product formation, 1 mM pHBA [2]: 0.20 μM per min | initial rate of product formation, 5 mM pHBA [2]: 0.59 μM per min | initial rate of product formation, 10 mM pHBA [2]: 1.03 μM per min | initial rate of product formation, 1 mM SA [3]: 118 μM per min | initial rate of product formation, 5 mM SA [3]: 82 μM per min | initial rate of product formation, 10 mM SA [3]: 55.6 μM per min | times more active with sinapic acid than pHBA ([1]; 10 mM substrate): at least 50 times | Ratio of Activity pHBA/SA [1]: 0.018 | pHBA/SA ratio of enzyme activity ([1]; 1 mM substrate): 0.002 | pHBA/SA ratio of enzyme activity ([1]; 5 mM substrate): 0.007 | pHBA/SA ratio of enzyme activity ([1]; 10 mM substrate): 0.018

B3: GT 4: Arabidopsis UDP-glucosyltransferase, GenBank AL161541, SEQ ID NO:12 (protein, listed as Arabidopsis thaliana)
chain: MNPSRHTHVMLVSFPGQGHVNPLLRLGKLIASKGLLVTFVTTEKPWGKKMRQANKIQDGVLKPVGLGFIRFEFFSDGFADDDEKRFDFDAFRPHLEAVGKQEIKNLVKRYNKEPVTCLINNAFVPWVCDVAEELHIPSAVLWVQSCACLTAYYYYHHRLVKFPTKTEPDISVEIPCLPLLKHDEIPSFLHPSSPYTAFGDIILDQLKRFENHKSFYLFIDTFRELEKDIMDHMSQLCPQAIISPVGPLFKMAQTLSSDVKGDISEPASDCMEWLDSREPSSVVYISFGTIANLKQEQMEEIAHGVLSSGLSVLWVVRPPMEGTFVEPHVLPRELEEKGKIVEWCPQERVLAHPAIACFLSHCGWNSTMEALTAGVPVVCFPQWGDQVTDAVYLADVFKTGVRLGRGAAEEMIVSREVVAEKLLEATVGEKAVELRENARRWKAEAEAAVADGGSSDMNFKEFVDKLVTKHVTREDNGEH
times more active with sinapic acid than pHBA ([1]; 10 mM substrate): at least 80 times

B4: GT 3: Arabidopsis UDP-glucosyltransferase, GenBank AL161541.2, SEQ ID NO:8 (protein, listed as Arabidopsis thaliana)
chain: MMFETCPSPNPIHVMLVSFQGQGHVNPLLRLGKLIASKGLLVTFVTTELWGKKMRQANKIVDGELKPVGSGSIRFEFFDEEWAEDDDRRADFSLYIAHLESVGIREVSKLVRRYEEANEPVSCLINNPFIPWVCHVAEEFNIPCAVLWVQSCACFSAYYHYQDGSVSFPTETEPELDVKLPCVPVLKNDEIPSFLHPSSRFTGFRQAILGQFKNLSKSFCVLIDSFDSLEQEVIDYMSSLCPVKTVGPLFKVARTVTSDVSGDICKSTDKCLEWLDSRPKSSVVYISFGTVAYLKQEQIEEIAHGVLKSGLSFLWVIRPPPHDLKVETHVLPQELKESSAKGKGMIVDWCPQEQVLSHPSVACFVTHCGWNSTMESLSSGVPVVCCPQWGDQVTDAVYLIDVFKTGVRLGRGATEERVVPREEVAEKLLEATVGEKAEELRKNALKWKAEAEAAVAPGGSSDKNFREFVEKLGAGVTKTKDNGY
initial rate of product formation, 1 mM pHBA [2]: 9.4 μM per min | initial rate of product formation, 5 mM pHBA [2]: 42.3 μM per min | initial rate of product formation, 10 mM pHBA [2]: 64.9 μM per min | initial rate of product formation, 1 mM SA [3]: 146 μM per min | initial rate of product formation, 5 mM SA [3]: 158 μM per min | initial rate of product formation, 10 mM SA [3]: 143 μM per min | times more active with sinapic acid than pHBA ([1]; 10 mM substrate): only about twice as active | Ratio of Activity pHBA/SA [1]: 0.454 | pHBA/SA ratio of enzyme activity ([1]; 1 mM substrate): 0.064 | pHBA/SA ratio of enzyme activity ([1]; 5 mM substrate): 0.268 | pHBA/SA ratio of enzyme activity ([1]; 10 mM substrate): 0.454

B5: Eucalyptus GT: Eucalyptus grandis UDP-glucosyltransferase, SEQ ID NO:22 (protein, listed as Eucalyptus grandis)
chain: MGSEALVHVLLVSFPGQGHVNPLLRLGKRLASKGLLVTFTTPESIGKAMRKASNIGEELSPVGDGFIRFEFFEDGWDEDEIRRQDLDQYLPQLEKVGKVLIPEMIRRNAEQGRPISCLINNPFIPWVSDVADSLGLPSAMLWVQSCACFTSYYYYYHGLVPFPSETAMEIDVQLPCMPLLKHDEVPSFLYPTTPYPFLRRAIMGQYKNLDKPFCILMDTFQELEHEIIEYMSKISPIKTVGPLFKNPKAPNATVKGDFMKADDCVGWLDSKPASSIVYVSFGSVVYLKQDQWDEIAYGLLNSGVNFLWVMKPPHKDSGYEVLKMPEGFLEKAGDRGKVVQWSPQEQVLAHPSVACFVTHCGWNSTMEALTSGMPVVAFPQWGDQVTDAKYLVDVFKVGVRMCRGEAENKLITRDVVEQCLREATSGPKAEEMKQNAMKWSAAAEAAVAEGGSSDRNIQAFVDEVKRRSLEVLAASGKSTANGGADLANKVAANGVAELGEPKVNGELKVVS
rate of pHBA glucosylation relative to sinapic acid ([1]; 10 mM substrate): over an order of magnitude greater | Ratio of Activity pHBA/SA [1]: 13.2

B6: GT 5: Arabidopsis UDP-glucosyltransferase, GenBank AL161541.2, SEQ ID NO:16 (protein, listed as Arabidopsis thaliana)
chain: MKMESSLPHVMLVSFPGQGHISPLLRLGKIIASKGLIVTFVTTEEPLGKKMRQANNIQDGVLKPVGLGFLRFEFFEDGFVYKEDFDLLQKSLEVSGKREIKNLVKKYEKQPVRCLINNAFVPWVCDIAEELQIPSAVLWVQSCACLAAYYYYHHQLVKFPTETEPEITVDVPFKPLTLKHDEIPSFLHPSSPLSSIGGTILEQIKRLHKPFSVLIETFQELEKDTIDHMSQLCPQVNFNPIGPLFTMAKTIRSDIKGDISKPDSDCIEWLDSREPSSVVYISFGTLAFLKQNQIDEIAHGILNSGLSCLWVLRPPLEGLAIEPHVLPLELEEKGKIVEWCQQEKVLAHPAVACFLSHCGWNSTMEALTSGVPVICFPQWGDQVTNAVYMIDVFKTGLRLSRGASDERIVPREEVAERLLEATVGEKAVELRENARRWKEEAESAVAYGGTSERNFQEFVDKLVDVKTMTNINNVV
initial rate of product formation, 1 mM pHBA [2]: 0.23 μM per min | initial rate of product formation, 5 mM pHBA [2]: 0.45 μM per min | initial rate of product formation, 10 mM pHBA [2]: 0.83 μM per min | initial rate of product formation, 1 mM SA [3]: 5.18 μM per min | initial rate of product formation, 5 mM SA [3]: 9.2 μM per min | initial rate of product formation, 10 mM SA [3]: 5.9 μM per min | Ratio of Activity pHBA/SA [1]: 0.141 | pHBA/SA ratio of enzyme activity ([1]; 1 mM substrate): 0.044 | pHBA/SA ratio of enzyme activity ([1]; 5 mM substrate): 0.049 | pHBA/SA ratio of enzyme activity ([1]; 10 mM substrate): 0.141
